# In the RNAGym collection of RNA variant scans (doi:10.1073/pnas.2313332121):
# B1: TPR t1 (parent)
# chain: GACCAAUCUGCCCUCAGAGCUCGAGAACAUCUUCGGAUGCAGAGGAGGCAGGCUUCGGUGGCGCGAUAGCGCCAACGUCCUCAACCUCCAAUGCAUCCCACCACAUGAUGAUGCCUGAAGAGCCUUGGUUUUUUG
# Variants of: B1
# Assay: polymerase ribozyme fitness, log enrichment relative to wild type (log ratio); higher = more active; in vitro selection for triplet polymerase activity
# In short: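 Only genotypes with ≥10 input reads and ≥1 read per output were kept after Illumina sequencing of input and output libraries. These libraries were PCR-built, transcribed mutants of each subunit of a heterodimeric triplet polymerase ribozyme, each put through one triplicate in vitro selection round with frozen incubation at −7 °C, gel excision of extended constructs, streptavidin-bead capture and RT-PCR. Fitness is a logarithmic ratio of genotype enrichment to wild-type enrichment, from inverse-variance-weighted replicate averages, with the logarithm in base 2.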
row,Variant,polymerase ribozyme fitness (log ratio)
1,G52U G120C,-0.122
2,G52U G120A,-0.091
3,U55C G58A,0.121
4,U54C C80A U125A,-2.52
5,U54A G60C G117C,-3.99
6,C53A C56U G58A U133G,-0.438
7,U55C G61A U125A,-0.857
8,C56A C86A,-0.76
9,U55G C73U G110A,-0.834
10,U55C C85A,-2.73
11,G52U C56U C62U U130A,-1.37
12,C53U U78C C124G,1.86
13,C56G A66U A74C G122A,-6.51
14,U55A G57A G71C G113A,-2.54
15,C53A C56U U106C,-0.479
16,U54G C89A U131G,-2.74
17,U55G U116G,-2.12
18,U55C C89U C115U,-3.71
19,G52U C73G,-1.11
20,C53U C62A U78C,-1.46
21,U54A C124A,-0.2
22,C53U C70A A84C A100U,-3.17
23,U54G C104G,-7.42
24,C53G C114A U125C,-2.07

row,Variant,polymerase ribozyme fitness (log ratio)
1,C53U A66G U112A,-0.539
2,U55A G57C U78C A103G C124A U125A,-4.66
3,U55A G61C U96A G120C,-1.22
4,C53U G122A,-0.631
5,U55A C73A C104A A118G G122U,-1.07
6,U54G C56A U132C,-1.66
7,C53A C82U C88G A118U,-0.344
8,U54A U59G,-0.218
9,C56A C123G,1.24
10,C56A A121U,1.42
11,C56A A121G,1.77
12,C53A C99U,-4.03
13,C53A C124U U129G,-0.384
14,C53A C64U U78C C104A,-0.646
15,C53U C56U C89A G120A,-1.49
16,C53U G69U,0.587
17,G52U C73G U112A G120A C124A U126A,-0.0832
18,U54A U55G G61A C80U,-0.516
19,C56A C97A,-3.81
20,U54A C64U A105U,-2.69
21,U55A C101U A121U,1.89
22,U55A C62A U78C C79A U125G U133G,-3.28
23,C53A U78G C82A,0.638
24,U54A A108U,-4.71

row,Variant,polymerase ribozyme fitness (log ratio)
1,C53A U112G,-0.496
2,C56G C73A G93C,-4.53
3,C56A C73G,-2.34
4,C53G C70A,-3.68
5,C53U G61A A105C,-2.22
6,U54A U81G G120A,-3.57
7,G52U C64U C82G,-2.19
8,C53G C124U U129A,-0.596
9,C53A G60A A100U G120C C123G,-1.07
10,C53U C64U U106A,-1.12
11,C53A U54G C70U C86U C89G A121C U125A,-2
12,C53U C73G G113C U132C,-3.47
13,C53A G135A,0.127
14,C53A C88U U106G,-1.18
15,G52U G69C C73A,-2.55
16,G52U C56A A66U C102A,-6.29
17,U54C G71A C85G C101U U112G G120C,-4.36
18,C56A A111U U129C,-4.47
19,C56A G61A G110U,-4.01
20,C56G A74U C124U,0.777
21,U55G C62A A74U C102A,-5.52
22,C56G C62U,0.102
23,C56A C72U,-0.391
24,U54C U59C G61U U125A,-6.69

row,Variant,polymerase ribozyme fitness (log ratio)
1,C53U C72A U130A,-0.183
2,C56G A91U A111C,-2.73
3,U55A C80A C86G C124G,-4.35
4,C53U U132A,-0.215
5,U55A C56G C89U C124A,0.651
6,C53G C86A A118G,-1.38
7,C56G C89A A105G C114U,-5.42
8,U54C U81C A95C,-0.789
9,C53A G69U A105U,-0.0597
10,U55G A95U A111C A121U G127C,0.185
11,U55G G69A U112C G120C,-2.49
12,U54A U92C G128A,-3.16
13,C53G U54C A121C,1.78
14,C53A U78C,-0.332
15,G52U U55A A83G U106A C115U,-5.1
16,U55A G71A C82A C115A,-0.992
17,C53U G113U,-1.43
18,C56G A74U U81A U87A,-4.29
19,C53G C114G,-3.08
20,C53U C64U G93U,-1.53
21,C56A C94U,-0.146
22,U55G C102A G110A U130A,-6.51
23,U55C U96A U106A,-0.506
24,C53U C97U,-0.844

row,Variant,polymerase ribozyme fitness (log ratio)
1,C53G G117A U130C,-1.46
2,C53G G113A,-1.24
3,C53U C72U C82G C123G,-0.45
4,C53G U106G,-2.14
5,G52U A105G,-3.17
6,U54G C94A C114A,-3.33
7,C53A G69A C124A,-0.263
8,U54G U116A,-3.36
9,U55C A121G,1.84
10,G52U G77C,-0.813
11,C56A C115A U126C,-1.19
12,U55C C56U U125A,-0.641
13,U54C A118G,-0.7
14,C56G C89G,-3.34
15,C53U C80U U81C G120A,-3.73
16,U55A U78G C82A G110A,-2.58
17,U54C C124U,1.81
18,U54A U116G,-1.91
19,G52U U132A,-0.57
20,C53G U78C C82U G120A,0.0778
21,U54G A95G U130A,-1.11
22,C53U G61C,0.349
23,C53G U112A,0.666
24,G52U G93A C114G,-4.8

row,Variant,polymerase ribozyme fitness (log ratio)
1,C56A C72U U109G,-5.76
2,U55C A105G C123G,-0.655
3,C56A C62U C124U,1.48
4,C56A G71U U78G A105G A119U G122A,-5.65
5,C53G C73U G113C A121C,-2.12
6,C53A C56A U87C G120C,1.18
7,U54G C123G,0.306
8,U55C C70A C97U U116A,-4.83
9,C53U C72A A91G U132A,0.186
10,C56A C99U C102U,-5.77
11,C53U U87A C97A,-5.45
12,U55G C62U C102A,-1.77
13,U54G G63U C88U C89A A103U G122U C124A,-7.39
14,C56A G127U U129A U130C,-1.7
15,C53U G69U C88G G110C C115A A121C C124G,-2.79
16,U55G U96A,-1.38
17,C56A G60A,-0.181
18,U54G A84C,-0.587
19,U55C G120U C123G U131A,-0.058
20,U54C C101G,-1
21,C53A C88U C104U,0.665
22,U54A C94A G113U,-3.97
23,C56A C73U C124A,1.29
24,C53G C99U,-3.54

row,Variant,polymerase ribozyme fitness (log ratio)
1,C53U G71A,-0.671
2,G52U G58C,-0.674
3,C53A A84U G117U C123G,-0.712
4,C56G A74U G120U G127A,-1.98
5,C53U C62U,-1.01
6,C53A C62G A108G,-3.91
7,U54G G60U C115A,-3.58
8,U54A C56U G93A,0.304
9,U54C C86G C88A C101U U129C,-3.66
10,U54C G71A C102A C123A,-3.7
11,C53U C80U,-0.665
12,U54A C56U U133A,-0.112
13,U54C G61A,-0.24
14,C53U C88A G110A U112G,-4.23
15,C53G C97U C104A A118G,-3.19
16,U55A A84C,0.0901
17,U54A C62U C72G,-1.24
18,C56A C73U A84U G120U,-1.05
19,C53U C104U,0.142
20,C56A G63C,-2.33
21,C53G C62U A119U,-0.561
22,G52U C72G,0.452
23,G52U G61A C102U U126C,-3.23
